First the molecules themselves.
B1: SEQ ID NO 39 (receptor)
chain: MGHLPKPTLWAEPGSVITQGAPVTLRCQGGQETQEYRLYREKKTAPWITRIPQELVKKGQFPIPSITWEHAGRYRCYYGSDTAGRSESSDPLELVVTGVYIKPTLSAQPSPVVNSGGNVTLQCDSQVAFDGFILCKEGEDEHPQCLNSQPHARGSSRAIFSVGPVSPGRRWWYRCYAYDSNSPYEWSLPSDLLELLVL
B2: SEQ ID NO 40 (receptor)
chain: MGHLPKPTLWAEPGSVITQGRPVTLRCQGGQETQEYRLYREKKTAPWITRIPQELVKKGQFPIPSITWEHAGRYRCYYGSDTAGRSESSDPLELVVTGVYIKPTLSAQPSPVVNSGGNVTLQCDSQVAFDGFILCKEGEDEHPQCLNSQPHARGSSRAIFSVGPVSPSRRWWYRCYAYDSNSPYEWSLPSDLLELLVL
B3: SEQ ID NO 47 (receptor)
chain: MGHLPKPTLWAEPGSVITQGSPVTLRCQGGQETQEYRLYREKKTAPWITRIPQELVKKGQFPIPSITWEHAGRYRCYYGGQEGARSESSDPLELVVTGVYIKPTLSAQPSPVVNSGGNVTLQCDSQVAFDGFILCKEGEDEHPQCLNSQPHARGSSRAIFSVGPVSPSRRWWYRCYAYDSNSPYEWSLPSDLLELLVL
B4: SEQ ID NO 45 (receptor)
chain: MGHLPKPTLWAEPGSVITQGSPVTLRCQGGQETQEYRLYREKKTAPWITRIPQELVKKGQFPIPSITWEHAGRYRCVGWAVTAGRSESSDPLELVVTGVYIKPTLSAQPSPVVNSGGNVTLQCDSQVAFDGFILCKEGEDEHPQCLNSQPHARGSSRAIFSVGPVSPSRRWWYRCYAYDSNSPYEWSLPSDLLELLVL
B5: SEQ ID NO 42 (receptor)
chain: MGHLPKPTLWAEPGSVITLGQPVTLRCQGGQETQEYRLYREKKTAPWITRIPQELVKKGQFPIPSITWEHAGRYRCYYGSDTAGRSESSDPLELVVTGVYIKPTLSAQPSPVVNSGGNVTLQCDSQVAFDGFILCKEGEDEHPQCLNSQPHARGSSRAIFSVGPVSPGRRWWYRCYAYDSNSPYEWSLPSDLLELLVL
B6: SEQ ID NO 44 (receptor)
chain: MGHLPKPTLWAEPGSVITQGSPVTLRCQGGQETQEYRLYREKKTAPWITRIPQELVKKGQFPIPSVTWEHAGRYRCYYGSDTAGRSESSDPLELVVTGVYIKPTLSAQPSPVVNSGGNVTLQCDSQVAFDGFILCKEGEDEHPQCLNSQPHARGSSRAIFSVGPVSPSRRWWYRCYAYDSNSPYEWSLPSDLLELLVL
B7: SEQ ID NO 41 (receptor)
chain: MGHLPKPTLWAEPGSVITVGQPVTLRCQGGQETQEYRLYREKKTAPWITRIPQELVKKGQFPIPSITWEHAGRYRCYYGSDTAGRSESSDPLELVVTGVYIKPTLSAQPSPVVNSGGNVTLQCDSQVAFDGFILCKEGEDEHPQCLNSQPHARGSSRAIFSVGPVSPGRRWWYRCYAYDSNSPYEWSLPSDLLELLVL
B8: SEQ ID NO 43 (receptor)
chain: MGHLPKPTLWAEPGSVITQGSPVTLRCQGGQETQEYRLYREKKTAPWITRIPQELVKKGQFPIPSITWEHAGRYRCYYGSDTAGRSESSDPLELVVTGVYIKPTLSAQPSPVVNSGGNVTLQCDSQVAFDGFILCKEGEDEHPQCLNSQPHARGSSRAIFSVGPVSPGRRWWYRCYAYDSNSPYEWSLPSDLLELLVL

The target of the test is HLA-A*0201 loaded with the Carcinoembryonic antigen (CEA)-derived … peptide (biotinylated on the C-terminal biotinylation tag). Nature of the test: SPR (Biacore), Example 4.
By Kd is commonly meant the concentration at which binding is half-saturated. High values mean weaker binding, low ones tighter binding. The koff is a measure of how fast the partners let go of each other. B1 gave a Kd of no more than 1000 nM and a koff of no more than 2 s⁻¹.
In the case of B2, the Kd is no more than 1000 nM and the off-rate constant (koff) was no more than 2 s⁻¹.
Molecule B3 returned a Kd of no more than 1000 nM and a dissociation rate constant (koff) of no more than 2 s⁻¹.
The molecule B4 displayed a Kd of no more than 1000 nM and a dissociation rate constant (koff) of no more than 2 s⁻¹.
In turn, B5 showed a dissociation constant (Kd) of no more than 1000 nM and an off-rate (koff) of no more than 2 s⁻¹.
Molecule B6 registered a Kd of no more than 1000 nM and a koff of no more than 2 s⁻¹.
The molecule B7 came in with a Kd of no more than 1000 nM and a koff of no more than 2 s⁻¹.
B8 returned a Kd of no more than 1000 nM and a koff of no more than 2 s⁻¹.
